According to publication doi:10.1101/2021.02.03.429507:

Assays:
[1] = target: E-cad construct B (cytoplasmic tail of mouse E-cadherin, FRET labels on the central segment) (mouse) (UniProt P09803); assay: single-molecule FRET
[2] = target: E-cad construct C (cytoplasmic tail of mouse E-cadherin, FRET labels on the C-terminal segment) (mouse) (UniProt P09803); assay: single-molecule FRET
[3] = target: E-cad construct A (cytoplasmic tail of mouse E-cadherin, FRET labels on the N-terminal segment) (mouse) (UniProt P09803); assay: single-molecule FRET
[4] = target: Core-binding region peptide of E-cad, AlexaFluor 488 at the C-terminus (mouse); assay: two-focus FCS
[5] = target: Core-binding region peptide of E-cad, AlexaFluor 488 at the N-terminus (mouse); assay: two-focus FCS

- Kd [1]: 4 nM
- Kd [2]: 4 nM
- Kd [3]: 4 nM
- Kd [4]: > 1000 nM
- Kd [5]: > 1000 nM
Substance: Full-length murine beta-catenin (from UniProt Q02248 1-781) (natural protein)
